Assay [1] concerns the target T1, Human BSSL (bile salt-stimulated lipase), native (human, UniProt P19835 21-753).
T1 sequence: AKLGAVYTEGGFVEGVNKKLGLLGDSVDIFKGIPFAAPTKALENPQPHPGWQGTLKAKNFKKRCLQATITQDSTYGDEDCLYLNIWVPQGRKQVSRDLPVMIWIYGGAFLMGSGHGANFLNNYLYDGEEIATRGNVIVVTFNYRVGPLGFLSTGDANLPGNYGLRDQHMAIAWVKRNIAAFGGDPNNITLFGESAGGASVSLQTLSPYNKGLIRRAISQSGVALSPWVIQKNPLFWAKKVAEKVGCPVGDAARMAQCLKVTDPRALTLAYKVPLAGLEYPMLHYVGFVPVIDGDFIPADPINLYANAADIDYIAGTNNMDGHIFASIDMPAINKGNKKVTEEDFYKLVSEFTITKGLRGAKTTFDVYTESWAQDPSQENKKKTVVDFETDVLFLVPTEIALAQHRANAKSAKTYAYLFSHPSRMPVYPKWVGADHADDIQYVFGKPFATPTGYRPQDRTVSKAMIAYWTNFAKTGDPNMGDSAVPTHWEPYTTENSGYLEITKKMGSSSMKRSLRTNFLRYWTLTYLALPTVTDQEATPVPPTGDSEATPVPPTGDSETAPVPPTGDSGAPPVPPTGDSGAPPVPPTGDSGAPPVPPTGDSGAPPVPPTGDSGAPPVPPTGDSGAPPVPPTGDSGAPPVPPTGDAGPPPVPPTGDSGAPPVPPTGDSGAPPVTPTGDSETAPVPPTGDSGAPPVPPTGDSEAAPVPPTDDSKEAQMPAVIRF
In words: cell-based or functional assay.

Assay [2] addresses T1, Human BSSL (bile salt-stimulated …). In words: cell-based or functional assay. This is another data set of the same source.
The target in assay [3] is T2, Mouse BSSL, recombinant (mouse, UniProt Q64285 21-599).
T2 construct: Bought (R&D Systems, Cat. no 5658-CE); also called mBSSL; murine BSSL
T2 sequence: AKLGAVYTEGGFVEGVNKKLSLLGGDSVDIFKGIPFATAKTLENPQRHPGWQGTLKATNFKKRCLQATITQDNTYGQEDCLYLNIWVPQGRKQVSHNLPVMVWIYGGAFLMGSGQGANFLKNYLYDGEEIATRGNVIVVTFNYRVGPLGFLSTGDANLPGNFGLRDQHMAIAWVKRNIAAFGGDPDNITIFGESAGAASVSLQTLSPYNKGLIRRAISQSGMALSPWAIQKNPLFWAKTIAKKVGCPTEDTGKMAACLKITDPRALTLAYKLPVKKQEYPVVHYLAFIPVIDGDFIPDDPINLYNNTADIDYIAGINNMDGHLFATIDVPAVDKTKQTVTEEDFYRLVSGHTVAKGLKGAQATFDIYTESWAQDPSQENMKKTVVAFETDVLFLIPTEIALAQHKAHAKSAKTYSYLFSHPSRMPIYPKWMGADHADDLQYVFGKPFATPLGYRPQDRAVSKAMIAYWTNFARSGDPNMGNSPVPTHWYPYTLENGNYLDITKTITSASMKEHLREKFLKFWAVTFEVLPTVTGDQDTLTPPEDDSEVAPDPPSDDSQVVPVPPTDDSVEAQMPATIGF
As to the kind of experiment: SPR steady state, hIgG4 S228P captured by anti-Fab. Summed up:
(§1)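 hIgG4 S228P captured on an immobilized anti-Fab surface; five BSSL concentrations injected, 1:5 dilutions from 50 nM (human) or from 500 nM (mouse). Human BSSL: single-cycle kinetics, 1:1 fit. Mouse BSSL: KD from steady-state equilibrium response versus concentration. Regeneration with 10 mM glycine-HCl pH 2.1.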

For assay [4], the target named is T1, Human BSSL (bile salt-stimulated …). As to the kind of experiment: SPR single cycle kinetics, hIgG4 S228P captured by anti-Fab. In short, it runs like this: as §1
For assay [5], the target named is T2, Mouse BSSL, recombinant. In words: SPR steady state, captured by anti-Fab, Absolute Antibody batch. As to the method:
(§2) Kinetic parameters of the hIgG4 S228P clones were determined by SPR using BIACORE® T200 (GE Healthcare). An anti-Fab antibody (GE #28958325) was immobilized on a CM5 S sensor chip by primary amine coupling using NHS-EDC chemistry. The hIgG4 antibodies were captured by the anti-Fab antibody, and subsequently, five different concentrations of hBSSL (1:5 dilutions, 0.08-50 nM) or mBSSL (1:2 dilutions, 50-800 nM) were injected over the surface. The sensor chip surface was regenerated with 10 mM glycine-HCl pH 2.1. For binding to human BSSL, single cycle kinetic data was fitted to a 1:1 binding model and kinetic parameters were retrieved using software BlAevaluation. For mouse BSSL, a steady state analysis was performed by plotting the response level at equilibrium against each concentration, and KD values were retrieved by the BlAevalution software.

Assay [6] has as its target T3, Biotinylated human BSSL (human, UniProt P19835 21-753, Biotinylated on glycosacarides, 30-40 biotin/BSSL).
T3 construct: hBSSL biotinylated in house; also called b-hBSSL; human BSSL-biotin
T3 sequence: T1 sequence
As to the kind of experiment: flow cytometry displacement assay; 1.5 ug antibody, 1 ug b-hBSSL. In short, it runs like this: (§3)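 Antibody (0.5–3.0 μg per reaction) preincubated with 1 μg biotinylated human BSSL in PBS pH 7.4, 30 min at 4 °C, then with human buffy coat 30 min at 4 °C. After erythrocyte lysis/fixation, bound BSSL on CD14+ monocytes detected by labelled streptavidin via flow cytometry.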
A general note: Flow cytometry measures light scatter and fluorescence of single cells or particles in a stream.

Assay [7] addresses T3, Biotinylated human BSSL. As to the kind of experiment: flow cytometry displacement assay; 3.0 ug antibody, 1 ug b-hBSSL. Summed up: as §3
Assay [8] deals with T1, Human BSSL (bile salt-stimulated …). In words: SPR single cycle kinetics, captured by anti-Fab, Absolute Antibody batch. On the procedure:
as §2

The Kd is the constant that tells how readily two partners part at equilibrium.

B1: S-SL048-118 hIgG4 S228P (antibody, V domains shown)
VH: QVQLVQSGAEVKKPGASVKVSCKASGYTFTSYNMHWVRQAPGQGLEWMGVINPGDGATSYAQKFKGRVTMTRDTSTSTVYMELSSLRSEDTAVYYCARDYYGSSPLGYWGQGTLVTVSS
VL: DIQMTQSPSSLSASVGDRVTITCSASPSISYMNWYQQKPGKAPKLLIYATSSLPSGVPSRFSGSGSGTDFTLTISSLQPEDFATYYCHQRSSSPTFGQGTKLEIKR
notes: also called clone 118; mAb118
Turning to B1, in assay [1], the “BSSL hydrolysis of triglycerides, relative value (no antibody = 100%); 0.19 ug antibody” value was 107%; the “BSSL hydrolysis of triglycerides, relative value (no antibody = 100%); 0.38 ug antibody” value was 106%; the “BSSL hydrolysis of triglycerides, relative value (no antibody = 100%); 0.75 ug antibody” value worked out at 102%; the “BSSL hydrolysis of triglycerides, relative value (no antibody = 100%); 1.5 ug antibody” value amounted to 88%. Besides, in assay [1], the “BSSL hydrolysis of triglycerides, relative value (no antibody = 100%); 3.0 ug antibody” value was found to be 93.9% and the “BSSL hydrolysis of triglycerides, relative value (no antibody = 100%); 6.0 ug antibody” value is 119%. For the same molecule, in assay [2], the “BSSL hydrolysis of cholesterol esters, relative value (no antibody = 100%); 0.19 ug antibody” value worked out at 105%; the “BSSL hydrolysis of cholesterol esters, relative value (no antibody = 100%); 0.38 ug antibody” value was 103%; the “BSSL hydrolysis of cholesterol esters, relative value (no antibody = 100%); 0.75 ug antibody” value was 110%; the “BSSL hydrolysis of cholesterol esters, relative value (no antibody = 100%); 1.5 ug antibody” value stood at 105%. In assay [2], the “BSSL hydrolysis of cholesterol esters, relative value (no antibody = 100%); 3.0 ug antibody” value was determined as 106% and the “BSSL hydrolysis of cholesterol esters, relative value (no antibody = 100%); 6.0 ug antibody” value came to 102%. For the same molecule, the Kd in assay [3] came out at 95 nM. In addition, the Kd in assay [4] is 0.9 nM. In addition, the Kd in assay [5] was 70 nM. The “percentage reduction of b-hBSSL binding to CD14+ monocytes” value in assay [6] came to 23%. Moreover, in assay [7], the “percentage reduction of b-hBSSL binding to CD14+ monocytes” value was 58%. Moreover, the Kd in assay [8] stood at 0.5 nM.

The record behind these values is patent US20220267469A1 (LIPUM, published 2022).
